These results are taken from article PMC8194188, “Kinetic modeling of phosphorylase-catalyzed iterative β-1,4-glycosylation for degree of polymerization-controlled synthesis of soluble cello-oligosaccharides” (Biotechnology for Biofuels, 2021).

Substrate in this series: O=P(O)(O)O[C@H]1O[C@H](CO)[C@@H](O)[C@H](O)[C@H]1O
Description: initial rates from phosphate release, Michaelis-Menten fit. In kind it is biochemical, [Clostridium] cellulosi. To be noted: 100 mM cellobiose (saturating), 50 mM MES pH 7.0, 45 °C, synthesis direction.

B1: CcCdP (cellodextrin phosphorylase from Clostridium cellulosi) ([Clostridium] cellulosi) (protein)
chain: MITKVTPRSCKLTPFEILKQKFGSIIAMSGCADAIYSDSSCKNVIGITGLPIKAPVIQVLLENSKLAAFLNEYVQNKSVCLALEGMRYCLVFEDGQKVKLPQELDDIIQSTVSDVKNWAGTLTENGEHVIDLKKPSPGPHFYVNLLIGNRLGFNRTLQTTPKSVVDRFGRGSFRSHAATQVLATRYDMRQEENGFPANRQFYLYENGKQIFYSGSVDDDNILEAKCIHSCNRTVIKYKTACKLEITRTIFLCPQKKGLPLATEIQIINIKNNSERKRNLSITYTGMFGTAATHAIFEDVTYTNVIMQSAALYNDNGEFIGITPDYYRKKYNEDTRFVTMFVRKDGKRIFPKSFCTDYNDFVGNGTLEHPAGGEHLNNKLNRKGPGFFALGTPFTIMPGQDIEIDTFTGMSSSKDNPNYDDTTMPKELEALLRYFEASDSVQSALREVIDFQEKYCKYIEFKTEDKMFNAGFNKNLAFQILYQTFMSRSFCQTQKGYREIGFREIQDLYASMYYFINLGYQDFVKNLLFEWTSNVYKMGYANHNFYWVGKQPGLYSDDSLWLLQAYYRYIIYTKDTSILNEEVPVADGNNEKRAVRDTLKAIIQYSAFISVGNHGLPLLDLADWNDCLKIDNDYVDGAQKEKLYYKQLKETGGKYGDRFMSDYSESVMNAFLLKVAVDDLAEIAELDKDAELEQSMRKISSALSEKIQKYAWKGNFFARVLLNRYKDGSFTYIGAKGDKLSADPNIDGTYFLNSFSWAILSGVATDEQIGIMVDTLKKYMLTPYGIRLTTPADLNKLANDTATDHYFYGDRENGAVFKHASMMATAALAKAAKSVKDKALAKEMARLAYYMIDLVLPYKNLEDPFKLAGNPRICTQYINADSGENIGPLLSGTATWLNLTITSLAGIEYVKDGIMFSPVLREDETRLEYSLKAPGCSYNITITKPRGFARLIDSAYDLRIDGKKTDNCIIPMFTDGKEHSVTLEFK
notes: N-terminally His-tagged, recombinant, purified
For B1, the Km (usually the substrate concentration at which the rate is half of its maximum) is 470 ± 240 µM.
